Assays:
apc_human APC [1] = target: apc_human APC (UniProt P25054)
apc_human APC [2] = target: apc_human APC (UniProt P25054); remark: listed apart in the source

Sequence of Disks large homolog 1 (Homo sapiens) (Q12959 whole entry, looked up, stated change not applied): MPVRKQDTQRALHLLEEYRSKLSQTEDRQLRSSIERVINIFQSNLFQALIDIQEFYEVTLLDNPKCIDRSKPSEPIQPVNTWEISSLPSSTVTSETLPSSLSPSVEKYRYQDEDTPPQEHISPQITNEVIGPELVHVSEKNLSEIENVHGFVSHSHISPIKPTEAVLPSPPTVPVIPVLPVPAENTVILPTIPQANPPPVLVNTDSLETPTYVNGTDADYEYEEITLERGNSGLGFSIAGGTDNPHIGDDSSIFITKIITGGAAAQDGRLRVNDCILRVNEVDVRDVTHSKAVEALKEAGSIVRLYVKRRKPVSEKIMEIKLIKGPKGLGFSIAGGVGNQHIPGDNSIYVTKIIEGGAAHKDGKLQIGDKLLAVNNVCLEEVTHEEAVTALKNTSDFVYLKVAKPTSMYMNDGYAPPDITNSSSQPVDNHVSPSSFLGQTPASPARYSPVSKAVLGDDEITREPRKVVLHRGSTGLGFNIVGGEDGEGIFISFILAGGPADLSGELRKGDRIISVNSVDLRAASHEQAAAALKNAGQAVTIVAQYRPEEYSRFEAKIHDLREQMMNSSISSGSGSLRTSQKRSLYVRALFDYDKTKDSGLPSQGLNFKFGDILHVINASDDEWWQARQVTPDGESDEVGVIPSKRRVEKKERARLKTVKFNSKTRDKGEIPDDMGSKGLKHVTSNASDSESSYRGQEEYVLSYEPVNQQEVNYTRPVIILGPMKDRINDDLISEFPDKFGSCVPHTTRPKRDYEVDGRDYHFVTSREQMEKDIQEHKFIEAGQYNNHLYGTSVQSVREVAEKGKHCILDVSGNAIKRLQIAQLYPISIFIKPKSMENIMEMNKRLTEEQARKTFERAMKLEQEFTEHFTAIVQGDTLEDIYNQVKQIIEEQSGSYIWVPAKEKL
Sequence of apc_human APC (P25054 whole entry): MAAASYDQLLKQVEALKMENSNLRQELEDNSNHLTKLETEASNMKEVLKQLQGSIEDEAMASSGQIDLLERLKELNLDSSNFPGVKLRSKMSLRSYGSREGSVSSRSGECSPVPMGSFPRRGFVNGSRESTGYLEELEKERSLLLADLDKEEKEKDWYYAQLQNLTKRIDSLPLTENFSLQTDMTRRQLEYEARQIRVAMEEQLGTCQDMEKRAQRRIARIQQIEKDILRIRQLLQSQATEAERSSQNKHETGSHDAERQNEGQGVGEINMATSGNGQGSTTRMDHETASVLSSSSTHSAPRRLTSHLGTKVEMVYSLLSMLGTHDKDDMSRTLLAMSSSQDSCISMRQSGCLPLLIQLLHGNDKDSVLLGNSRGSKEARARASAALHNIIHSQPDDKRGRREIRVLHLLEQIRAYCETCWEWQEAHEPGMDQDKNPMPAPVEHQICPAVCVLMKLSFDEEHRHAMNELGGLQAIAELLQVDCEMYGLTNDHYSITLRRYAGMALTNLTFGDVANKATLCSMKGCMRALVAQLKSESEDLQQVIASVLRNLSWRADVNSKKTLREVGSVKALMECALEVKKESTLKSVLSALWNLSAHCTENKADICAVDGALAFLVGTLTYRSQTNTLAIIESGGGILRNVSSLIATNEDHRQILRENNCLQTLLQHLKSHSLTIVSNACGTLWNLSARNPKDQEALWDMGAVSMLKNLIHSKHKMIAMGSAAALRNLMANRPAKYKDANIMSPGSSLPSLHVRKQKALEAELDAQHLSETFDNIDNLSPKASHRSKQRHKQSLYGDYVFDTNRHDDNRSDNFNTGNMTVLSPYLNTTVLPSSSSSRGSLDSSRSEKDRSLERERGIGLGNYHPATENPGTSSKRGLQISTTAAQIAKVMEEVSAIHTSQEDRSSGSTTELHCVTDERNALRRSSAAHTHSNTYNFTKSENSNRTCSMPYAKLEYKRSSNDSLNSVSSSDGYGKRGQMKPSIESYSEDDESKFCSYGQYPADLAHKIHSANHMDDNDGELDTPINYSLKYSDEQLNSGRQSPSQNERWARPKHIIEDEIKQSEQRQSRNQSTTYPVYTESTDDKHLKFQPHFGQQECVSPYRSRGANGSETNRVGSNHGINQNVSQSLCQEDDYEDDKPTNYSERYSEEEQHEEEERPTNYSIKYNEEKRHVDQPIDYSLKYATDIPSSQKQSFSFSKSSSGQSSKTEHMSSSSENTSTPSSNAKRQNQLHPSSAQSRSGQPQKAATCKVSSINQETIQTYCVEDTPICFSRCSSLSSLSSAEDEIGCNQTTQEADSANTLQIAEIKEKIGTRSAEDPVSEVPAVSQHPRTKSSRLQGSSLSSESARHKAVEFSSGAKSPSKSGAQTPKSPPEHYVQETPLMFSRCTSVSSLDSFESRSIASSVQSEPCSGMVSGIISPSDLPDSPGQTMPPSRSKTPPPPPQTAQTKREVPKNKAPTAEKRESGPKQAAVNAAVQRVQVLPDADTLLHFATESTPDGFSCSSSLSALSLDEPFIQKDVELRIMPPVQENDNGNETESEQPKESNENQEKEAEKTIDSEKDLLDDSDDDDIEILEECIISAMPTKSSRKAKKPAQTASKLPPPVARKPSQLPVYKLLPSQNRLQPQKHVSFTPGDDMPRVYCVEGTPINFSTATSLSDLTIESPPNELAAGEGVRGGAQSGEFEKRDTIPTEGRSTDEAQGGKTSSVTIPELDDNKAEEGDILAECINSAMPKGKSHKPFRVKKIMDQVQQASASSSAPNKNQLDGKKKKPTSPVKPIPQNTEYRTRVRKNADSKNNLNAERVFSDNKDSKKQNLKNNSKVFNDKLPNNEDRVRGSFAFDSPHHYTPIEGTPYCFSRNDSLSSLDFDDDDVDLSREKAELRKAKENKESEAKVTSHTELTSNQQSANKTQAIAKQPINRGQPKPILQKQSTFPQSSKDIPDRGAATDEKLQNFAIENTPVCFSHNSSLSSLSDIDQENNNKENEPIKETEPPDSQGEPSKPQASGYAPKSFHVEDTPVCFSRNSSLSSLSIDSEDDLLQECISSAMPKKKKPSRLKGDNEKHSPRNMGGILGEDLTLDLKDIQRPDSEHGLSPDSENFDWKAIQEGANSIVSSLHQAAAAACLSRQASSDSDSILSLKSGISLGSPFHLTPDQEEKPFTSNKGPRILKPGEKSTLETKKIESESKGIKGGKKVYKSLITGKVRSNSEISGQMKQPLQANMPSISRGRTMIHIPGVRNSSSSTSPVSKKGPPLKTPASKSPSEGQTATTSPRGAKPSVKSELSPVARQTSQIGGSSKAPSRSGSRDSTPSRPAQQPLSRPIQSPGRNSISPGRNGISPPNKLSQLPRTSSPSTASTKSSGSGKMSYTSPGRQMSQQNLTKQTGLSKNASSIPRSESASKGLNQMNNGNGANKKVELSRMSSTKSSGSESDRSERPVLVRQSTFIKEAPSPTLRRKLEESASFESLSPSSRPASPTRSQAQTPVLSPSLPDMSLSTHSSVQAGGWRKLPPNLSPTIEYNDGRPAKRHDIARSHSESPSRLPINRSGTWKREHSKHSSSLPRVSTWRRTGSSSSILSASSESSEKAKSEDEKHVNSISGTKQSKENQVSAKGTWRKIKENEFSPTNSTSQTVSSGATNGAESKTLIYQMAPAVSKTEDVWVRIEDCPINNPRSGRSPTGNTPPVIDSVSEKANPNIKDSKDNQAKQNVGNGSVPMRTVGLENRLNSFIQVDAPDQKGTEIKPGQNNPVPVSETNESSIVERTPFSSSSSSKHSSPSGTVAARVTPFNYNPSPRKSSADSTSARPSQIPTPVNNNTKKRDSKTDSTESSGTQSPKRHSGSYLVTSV

Disks large homolog 1 (Homo sapiens) (from UniProt Q12959) Q340P
effect of a mutation on the interaction (apc_human APC [1]): decreasing interaction strength
effect of a mutation on the interaction (apc_human APC [2]): disrupting interaction strength
